Test results reported in article PMC12342048.

Target: mammalian cell-expressed human COMP (Cartilage Oligomeric Matrix Protein) (human) (UniProt P49747)
Sequence (P49747 21-757): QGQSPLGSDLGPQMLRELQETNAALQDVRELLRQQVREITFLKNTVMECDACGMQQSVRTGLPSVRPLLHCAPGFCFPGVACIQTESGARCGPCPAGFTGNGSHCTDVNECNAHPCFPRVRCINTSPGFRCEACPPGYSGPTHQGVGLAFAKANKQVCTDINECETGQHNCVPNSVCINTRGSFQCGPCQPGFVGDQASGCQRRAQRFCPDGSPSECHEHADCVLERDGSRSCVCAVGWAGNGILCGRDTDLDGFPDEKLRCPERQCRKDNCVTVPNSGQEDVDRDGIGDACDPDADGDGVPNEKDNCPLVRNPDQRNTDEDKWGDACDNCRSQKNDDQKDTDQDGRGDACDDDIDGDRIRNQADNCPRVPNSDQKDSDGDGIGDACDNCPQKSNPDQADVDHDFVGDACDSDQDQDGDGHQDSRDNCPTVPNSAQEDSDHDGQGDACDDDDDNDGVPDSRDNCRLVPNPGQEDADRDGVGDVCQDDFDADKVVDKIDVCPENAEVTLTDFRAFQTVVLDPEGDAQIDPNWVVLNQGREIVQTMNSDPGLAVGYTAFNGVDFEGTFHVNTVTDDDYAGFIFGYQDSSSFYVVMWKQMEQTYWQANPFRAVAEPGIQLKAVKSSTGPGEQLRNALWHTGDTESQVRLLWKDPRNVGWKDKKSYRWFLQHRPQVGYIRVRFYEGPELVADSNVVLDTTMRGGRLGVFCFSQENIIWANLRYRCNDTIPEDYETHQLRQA

Sequence of ADAMTS4 variant β1-β2 (residues 693–698 swapped with those of ADAMTS13) (O75173 52-837, change not shown): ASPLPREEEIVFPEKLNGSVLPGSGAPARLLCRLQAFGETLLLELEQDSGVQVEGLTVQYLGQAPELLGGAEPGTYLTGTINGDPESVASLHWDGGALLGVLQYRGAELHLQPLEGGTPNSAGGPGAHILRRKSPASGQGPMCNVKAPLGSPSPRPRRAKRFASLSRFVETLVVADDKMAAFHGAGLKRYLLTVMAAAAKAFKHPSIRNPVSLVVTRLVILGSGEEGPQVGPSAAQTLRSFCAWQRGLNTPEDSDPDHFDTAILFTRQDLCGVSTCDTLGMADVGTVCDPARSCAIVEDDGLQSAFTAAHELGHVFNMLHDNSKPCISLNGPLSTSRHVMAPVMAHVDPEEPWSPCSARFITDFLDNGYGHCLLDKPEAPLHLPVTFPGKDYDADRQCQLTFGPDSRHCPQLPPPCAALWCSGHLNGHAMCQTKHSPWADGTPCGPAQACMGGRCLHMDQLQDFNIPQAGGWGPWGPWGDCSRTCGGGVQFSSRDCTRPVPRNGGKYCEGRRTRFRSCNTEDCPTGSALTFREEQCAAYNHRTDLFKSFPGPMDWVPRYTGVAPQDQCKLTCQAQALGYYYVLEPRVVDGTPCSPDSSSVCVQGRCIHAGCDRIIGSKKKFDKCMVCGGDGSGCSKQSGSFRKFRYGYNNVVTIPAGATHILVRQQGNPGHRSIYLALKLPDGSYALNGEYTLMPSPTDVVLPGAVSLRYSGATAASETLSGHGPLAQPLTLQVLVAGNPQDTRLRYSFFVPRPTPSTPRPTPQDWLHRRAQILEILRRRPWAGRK
Sequence of ADAMTS4 variant β3-β4; β9-β10 (both loops replaced with those of ADAMTS13) (O75173 52-837, change not shown): as above

| reduction in COMPase activity at the S77-V78 bond compared to WT ADAMTS4 (hCOMP 520 nM, enzyme 12 nM, 2 h, 37 °C; densitometry of anti-QQS77 immunoblot, WT set as 100 %) [% reduction] | Substance |
| --- | --- |
| 25 | ADAMTS4 variant β1-β2 (residues 693–698 swapped with those of ADAMTS13) (from UniProt O75173 52-837) (enzyme) |
| 20 | ADAMTS4 variant β3-β4; β9-β10 (both loops replaced with those of ADAMTS13) (from UniProt O75173 52-837) (enzyme) |
